Data from US20200405832A1 (MINERVA BIOTECHNOLOGIES, published 2020).
Blank lines part the entries; values can stand above or below the binder they belong to.

Assays:
[1] = biological target: T1, PSMGFR peptide (Primary Sequence of the MUC1 Growth Factor Receptor); experiment: binding assay on peptide
T1 construct: 45-residue peptide from the extracellular domain of cleaved MUC1 (MUC1*); also called MUC1* peptide; MUC1* extra cellular domain peptide
T1 peptide: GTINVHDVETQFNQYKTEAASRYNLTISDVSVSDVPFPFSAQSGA

dimeric NME1 = biological target: T2, dimeric NME1 (human, UniProt P15531 1-152, limits assumed); experiment: binding assay on peptide
T2 construct: The construct used is not described; also called NM23-H1 dimers; dimeric NM23-H1

NME7-AB = biological target: T3, NME7-AB (UniProt Q9Y5B8 92-376); experiment: binding assay on peptide
T3 sequence (looked up): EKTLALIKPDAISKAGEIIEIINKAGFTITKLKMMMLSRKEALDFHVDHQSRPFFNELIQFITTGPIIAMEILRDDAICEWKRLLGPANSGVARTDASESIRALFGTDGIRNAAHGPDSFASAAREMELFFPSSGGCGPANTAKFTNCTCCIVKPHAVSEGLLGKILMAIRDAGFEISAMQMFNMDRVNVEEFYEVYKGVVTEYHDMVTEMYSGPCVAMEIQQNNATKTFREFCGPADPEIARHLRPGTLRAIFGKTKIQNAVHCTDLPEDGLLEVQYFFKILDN

[2] = biological target: T1, PSMGFR peptide (Primary Sequence of the …); experiment: binding to peptide; assay not described

T2 sequence (P15531 whole entry): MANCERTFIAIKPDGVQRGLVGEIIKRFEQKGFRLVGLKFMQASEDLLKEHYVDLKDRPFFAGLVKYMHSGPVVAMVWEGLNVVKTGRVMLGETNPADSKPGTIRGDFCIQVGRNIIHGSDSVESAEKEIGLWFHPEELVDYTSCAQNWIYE

- binding result (dimeric NME1): no binding
- binding result (NME7-AB): no binding
B2: PSMGFR peptide lacking the 10 C-terminal amino acids (peptide)
peptide: GTINVHDVETQFNQYKTEAASRYNLTISDVSVSDV
notes: also called C-10 PSMGFR

- binding result [2]: binds
B4: mouse monoclonal antibody MN-C3 (antibody, V domains shown)
VH: QVQLQQSGPELVRPGVSVKISCKGSGYRFTDYAMNWVKQSHAKSLEWIGVISTFSGNTNFNQKFKGKATMTVDKSSSTAYMELARLTSEDSAMYYCARSDYYGPYFDYWGQGTTLTVSS
VL: DVLMTQTPLSLPVSLGDQASISCRSSQTIVHSNGNTYLEWYLQKPGQSPKLLIYKVSNRFSGVPDRFSGSGSGTDFTLKINRVEAEDLGVYYCFQGSHVPFTFGSGTKLEIK
notes: also called Min-C3

Second part, the binder before the results:

B1: mouse monoclonal antibody MN-C2 (antibody, V domains shown)
VH: EVQLEESGGGLVKPGGSLKLSCAASGFTFSGYAMSWVRQTPEKRLEWVATISSGGTYIYYPDSVKGRFTISRDNAKNTLYLQMSSLRSEDTAMYYCARLGGDNYYEYFDVWGAGTTVTVSS
VL: DIVITQSTASLGVSLGQRATISCRASKSVSTSGYSYMHWYQQRPGQPPKLLIYLASNLESGVPARFSGSGSGTDFTLNIHPVEEEDAATYYCQHSRELPFTFGGGTKLEIKR
notes: The printed entries run a few residues into the constant region; also called Min-C2
- binding result [1]: binds

B3: mouse monoclonal antibody MN-E6 (antibody, V domains shown)
VH: EVKVVESGGDLVKPGGSLKLSCVVSGFTFSRYGMSWVRQTPGKRLEWVATISGGGTYIYYPDSVKGRFTISRDNAKNTLYLQMSSLKSEDTAMYHCTRDNYGRNYDYGMDYWGQGTSVTVSS
VL: QIVLTQSPAIMSASPGEEVTLTCSATSSVSYIHWFQQRPGTSPKLWIYSTSNLASGVPVRFSGSGYGTSYSLTISRMEAEDAATYYCQQRSSSPFTFGSGTKLEIK
notes: also called Min-E6
- binding result [1]: binds
